B1: Azoarcus group I ribozyme (parent)
chain: GUGCCUUGCGCCGGGAAACCACGCAAGGGAUGGUGUCAAAUUCGGCGAAACCUAAGCGCCCGCCCGGGCGUAUGGCAACGCCGAGCCAAGCUUCGGCGCCUGCGCCGAUGAAGGUGUAGAGACUAGACGGCACCCACCUAAGGCAAACGCUAUGGUGAAGGCAUAGUCCAGGGAGUGGCGAAAGUCACACAAACCGG

Variants of: B1
Test: reverse-splicing fitness (ratio to wild type); higher = more active; in vitro selection; Mg2+ level not given
Procedure, shortened: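 An in vitro group I ribozyme library with randomized positions was T7-transcribed and gel-purified. In triplicate, 10 pmol RNA in EPPS pH 7.5 was reacted with 50 pmoles of a 30-nt RNA substrate for 1 h at 37 °C across several added MgCl2 levels (1–48 mM), then stopped with EDTA. Products were reverse transcribed from a substrate-complementary primer, PCR-amplified and sequenced (HiSeq 4000). Fitness is a variant's read proportion after selection over that before, normalised to wild type.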

Point of comparison: C82G A120C A145G U176A, reverse-splicing fitness 0.0722. Against it:
- C82G A120C A145C C150A C169G U176G — lower, 0.0056
- C82G A120C A145C C150A C169G U176C — lower, 0.0164
- C82G A120C A145C C150A C169G U176A — lower, 0.0302
- C82G A120C A145C C150G U176A — lower, 0.00907
- C82G A120C A145C C150G U176C — lower, 0.0144
- C82G A120C A145C C150G U176G — lower, 0.00422
- C82G A120C A145U C150A U176A — lower, 0.0188
- C82G A120C A145U C150A U176C — lower, 0.0216
- C82G A120C A145U C150A U176G — lower, 0.00735
- C82G A120C A145C C150G C169A — lower, 0.00926
- C82G A120C A145C C150G C169U — lower, 0.0101
- C82G A120C A145C C150G C169G — lower, 0.00712
- C82G A120C A145U C150A C169G U176C — lower, 0.0161
- C82G A120C A145U C150A C169G U176G — lower, 0.00461
- C82G A120C A145U C150A C169G U176A — lower, 0.014
- C82G A120C C150G C169A U176A — lower, 0.01
- C82G A120C C150G C169A U176G — lower, 0.0082
- C82G A120C C150G C169A U176C — lower, 0.0106
- C82G A120C A145U C150U U176C — lower, 0.0672
- C82G A120C A145U C150U U176A — lower, 0.0489
- C82G A120C A145U C150U U176G — lower, 0.0119
- C82G A120C A145U C150G C169G U176G — lower, 0.00427
- C82G A120C A145U C150G C169G U176A — lower, 0.00782
- C82G A120C A145U C150G C169G U176C — lower, 0.00634
- C82G A111U C150U C169U U176G — lower, 0.00694
- C82G A111U C150U C169U U176C — lower, 0.013
- C82G A111U C150U C169U U176A — lower, 0.014
- C82G A120G A145C C150G C169G U176A — lower, 0.00772
- C82G A120G A145C C150G C169G U176C — lower, 0.00761
- C82G A120G A145C C150G C169G U176G — lower, 0.00412
- C82G A120C C150G C169G U176C — lower, 0.00574
- C82G A120C C150G C169G U176A — lower, 0.0067
- C82G A120C C150G C169G U176G — lower, 0.00538
- C82G A120C A145C C169G U176G — lower, 0.00428
- C82G A120C A145C C169G U176A — lower, 0.0262
- C82G A120C A145C C169G U176C — lower, 0.0161
- C82G A120G A145C C150A C169U — lower, 0.00751
- C82G A120G A145C C150A C169A — lower, 0.00825
- C82G A120G A145C C150A C169G — lower, 0.00875
- C82G A120C A145G C150G C169A — lower, 0.0104
- C82G A120C A145G C150G C169U — lower, 0.0121
- C82G A120C A145G C150G C169G — lower, 0.00813
- C82G A120C A145G U176G — lower, 0.0158
- C82G A120C A145G U176C — higher, 0.103
- C82G A120C A145C C150U C169A U176G — lower, 0.00525
- C82G A120C A145C C150U C169A U176A — lower, 0.0117
- C82G A120C A145C C150U C169A U176C — lower, 0.00587
- C82G A120C A145U C150G C169A U176C — lower, 0.0102
- C82G A120C A145U C150G C169A U176G — lower, 0.00473
- C82G A120C A145U C150G C169A U176A — lower, 0.0119
- C82G A111U C169G U176G — lower, 0.00614
- C82G A111U C169G U176A — lower, 0.0157
- C82G A111U C169G U176C — lower, 0.0227
- C82G A120C A145G C150G U176C — lower, 0.0168
- C82G A120C A145G C150G U176G — lower, 0.00687
- C82G A120C A145G C150G U176A — lower, 0.0102
- C82G A120C A145U U176G — lower, 0.0177
- C82G A120C A145U U176C — higher, 0.0999
- C82G A120C A145U U176A — higher, 0.0752
- C82G A120C C150A U176C — lower, 0.0287
- C82G A120C C150A U176A — lower, 0.0182
- C82G A120C C150A U176G — lower, 0.0105
- C82G A120G A145C C150A C169U U176C — lower, 0.0106
- C82G A120G A145C C150A C169U U176A — lower, 0.0196
- C82G A120G A145C C150A C169U U176G — lower, 0.00463
- C82G A120C A145U C169A — lower, 0.00673
- C82G A120C A145U C169U — lower, 0.0247
- C82G A120C A145U C169G — lower, 0.0068
- C82G A120C A145U C150U C169U U176A — lower, 0.0152
- C82G A120C A145U C150U C169U U176C — lower, 0.0148
- C82G A120C A145U C150U C169U U176G — lower, 0.00456
- C82G A120C A145U C150A C169U U176G — lower, 0.00492
- C82G A120C A145U C150A C169U U176C — lower, 0.013
- C82G A120C A145U C150A C169U U176A — lower, 0.0151
- C82G A120C A145C U176A — lower, 0.0678
- C82G A120C A145C U176G — lower, 0.0157
- C82G A120C A145C U176C — higher, 0.0842
- C82G A120C A145U C169G U176A — lower, 0.0121
- C82G A120C A145U C169G U176C — lower, 0.0138
- C82G A120C A145U C169G U176G — lower, 0.00368
- C82G A120C C150U C169U U176A — lower, 0.0159
- C82G A120C C150U C169U U176G — lower, 0.00634
